Each block holds one binder with its values, some of them ahead of it.
Legend:
CspA [1] = biological target: T1, CspA (Escherichia coli, UniProt P0A9X9 1-70); assay: tryptophan fluorescence quenching; 20°C; text calls the G6A variant oligo 6, table and Fig S10 oligo 5; Trp fluorescence: 1 uM CspA, Buffer H, 20°C; EMSA: Buffer O, 15 or 37°C, 10% native PAGE at 4°C; Fe-EDTA footprinting: Buffer N, 15°C; UV cross-linking at 15°C; buffer compositions not given in the material; settings: protein: recombinant; tags: His-tag (pETM11) removed with TEV; single strand
T1 sequence (P0A9X9 whole entry): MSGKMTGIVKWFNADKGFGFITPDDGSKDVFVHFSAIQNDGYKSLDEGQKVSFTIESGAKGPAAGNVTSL

[2] = biological target: Escherichia coli 30S ribosomal subunits (E. coli); assay: ITC; control experiment: IF1 and 30S subunits, at low temperature, under comparable conditions; ITC buffer
CspA [3] = biological target: T1, CspA; assay: tryptophan fluorescence quenching; 20°C; Trp fluorescence: 1 uM CspA, Buffer H, 20°C; EMSA: Buffer O, 15 or 37°C, 10% native PAGE at 4°C; Fe-EDTA footprinting: Buffer N, 15°C; UV cross-linking at 15°C; buffer compositions not given in the material; settings: protein: recombinant; tags: His-tag (pETM11) removed with TEV; single strand

Binder: AACUGAUA (ssRNA) [Oligo 5]
Kd (CspA [1]): 4860 ± 240 nM

Kd [2]: 806 nM
B1: initiation factor IF1 (natural protein)
chain: MAKEDNIEMQGTVLETLPNTMFRVELENGHVVTAHISGKMRKNYIRILTGDKVTVELTPYDLSKGRIVFRSR

Binder: AACAGGUA (ssRNA) [Oligo 3]
Kd (CspA [3]): 1240 ± 50 nM

Binder: AACUAGUA (ssRNA) [Oligo 4]
Kd (CspA [3]): 1030 ± 60 nM

Binder: AAAUGGUA (ssRNA) [Oligo 2]
Kd (CspA [3]): 2300 ± 130 nM

Binder: AACUGGUA (ssRNA) [Oligo 1]
Kd (CspA [3]): 1240 ± 80 nM

Binder: AAAAAAAAA (ssRNA) [Oligo 7 (poly-A)]
Kd (CspA [3]): 5130 ± 1150 nM

Binder: AACUGGAA (ssRNA) [Oligo 6]
Kd (CspA [3]): 2080 ± 140 nM
